The values that follow come from patent US20160256527A1 (ONCOMED PHARMACEUTICALS, published 2016).

This assay deals with T1, membrane bound single chain human GITRL trimer (human, UniProt Q9UNG2 29-177).
T1 construct: Expressed on the surface of transiently transfected HEK-293 cells (co-transfected with GFP); also called single chain hGITRL trimer
T1 sequence: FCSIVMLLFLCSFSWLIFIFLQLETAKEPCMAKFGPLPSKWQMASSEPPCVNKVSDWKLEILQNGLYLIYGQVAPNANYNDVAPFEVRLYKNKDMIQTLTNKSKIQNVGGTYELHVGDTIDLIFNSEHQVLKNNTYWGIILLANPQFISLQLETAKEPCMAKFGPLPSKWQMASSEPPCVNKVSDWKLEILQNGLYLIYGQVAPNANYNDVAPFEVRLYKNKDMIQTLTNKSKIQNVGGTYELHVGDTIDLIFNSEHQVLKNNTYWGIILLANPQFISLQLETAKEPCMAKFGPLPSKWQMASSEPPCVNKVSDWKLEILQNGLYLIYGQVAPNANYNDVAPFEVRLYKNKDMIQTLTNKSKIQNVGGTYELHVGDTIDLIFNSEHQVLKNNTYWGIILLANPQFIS
Put plainly: flow cytometry, HEK-293 cells transfected with membrane bound single chain hGITRL trimer, PE anti-human Fc. The procedure:
FIG. 2. FACS analysis of a membrane bound single chain GITRL trimer and soluble GITR. HEK293 cells were transiently transfected with an expression vector encoding a membrane bound single chain human GITRL trimer and a second expression vector encoding green fluorescent protein (GFP). Transfected cells were incubated with soluble human GITR-Fc fusion protein and analyzed by flow cytometry. Positive binding is determined by observation of cells within the inset box of the FACS plot.
To test the ability of a single chain hGITRL trimer to bind human GITR, binding studies were conducted. Human HEK-293 cells were transiently co-transfected with expression vectors encoding (1) the membrane bound single chain hGITRL trimer construct described above and (2) green fluorescent protein (GFP) as a transfection marker. Twenty-four hours post-transfection, the cells were incubated with hGITR-Fc or a control fusion protein. The cells were stained with a PE-conjugated anti-human Fc secondary antibody and analyzed by flow cytometry.
A general note: In flow cytometry, cells or beads pass a laser one at a time.

B1: soluble human GITR-Fc fusion protein (Fc fusion, UniProt Q9Y5U5 26-162, looked up)
chain: QRPTGGPGCGPGRLLLGTGTDARCCRVHTTRCCRDYPGEECCSEWDCMCVQPEFHCGDPCCTTCRHHPCPPGQGVQSQGKFSFGFQCIDCASGTFSGGHEGHCKPWTDCTQFGFLTVFPGNKTHNAVCVPGSPPAEP
notes: also called hGITR-Fc; not shown: Fc region
Consider B1, for which the binding result is given as “binds”.
